Assays:
[1] = target: soluble HSV gD-1 (glycoprotein D of HSV-1) (herpes simplex virus type 1, UniProt Q69091 26-331); assay: binding inhibition experiments, flow cytometry
[2] = target: gD-1 (Δ290-299t), mutant of soluble HSV gD-1 (herpes simplex virus type 1, UniProt Q69091 26-331); assay: binding inhibition experiments, flow cytometry

B1: TNFR60:Fc (Fc fusion, UniProt P19438 30-211, looked up)
chain: LVPHLGDREKRDSVCPQGKYIHPQNNSICCTKCHKGTYLYNDCPGPGQDTDCRECESGSFTASENHLRHCLSCSKCRKEMGQVEISSCTVDRDTVCGCRKNQYRHYWSENLFQCFNCSLCLNGTVHLSCQEKQNTVCTCHAGFFLRENECVSCSNCKKSLECTKLCLPQIENVKGTEDSGTT
notes: also called TNFR:Fc; TNFR1-Fc; not shown: Fc region of human IgG1
B1: no binding [1]; no binding [2].
